Key:
Assay in all cases: purified protein
purified protein [1] = substrate: CCCCCC(O)/C=C/C=O; details: NAD+
purified protein [2] = substrate: CCCCCCCC=O; assay type: biochemical, Homo sapiens; details: NAD+
purified protein [3] = substrate: CC=O; assay type: biochemical, Homo sapiens; details: NAD+
purified protein [4] = substrate: CCCCCC=O; assay type: biochemical, Homo sapiens; details: NAD+
purified protein [5] = substrate: CC(=O)Oc1ccc([N+](=O)[O-])cc1; assay type: biochemical, Homo sapiens
purified protein [6] = substrate: O=Cc1ccccc1; assay type: biochemical, Homo sapiens; details: NAD+

B1: ALDH3B1 (Homo sapiens) (protein)
chain: MDPLGDTLRRLREAFHAGRTRPAEFRAAQLQGLGRFLQENKQLLHDALAQDLHKSAFESEVSEVAISQGEVTLALRNLRAWMKDERVPKNLATQLDSAFIRKEPFGLVLIIAPWNYPLNLTLVPLVGALAAGNCVVLKPSEISKNVEKILAEVLPQYVDQSCFAVVLGGPQETGQLLEHRFDYIFFTGSPRVGKIVMTAAAKHLTPVTLELGGKNPCYVDDNCDPQTVANRVAWFRYFNAGQTCVAPDYVLCSPEMQERLLPALQSTITRFYGDDPQSSPNLGRIINQKQFQRLRALLGCGRVAIGGQSDESDRYIAPTVLVDVQEMEPVMQEEIFGPILPIVNVQSLDEAIEFINRREKPLALYAFSNSSQVVKRVLTQTSSGGFCGNDGFMHMTLASLPFGGVGASGMGRYHGKFSFDTFSHHRACLLRSPGMEKLNALRYPPQSPRRLRMLLVAMEAQGCSC
Km (purified protein [1]): 52 ± 5 µM
Vmax (purified protein [1]): 0.653 µmol/min/mg
Km (purified protein [2]): 8 ± 2 µM
Vmax (purified protein [2]): 1.24 µmol/min/mg
Km (purified protein [3]): 23.3 ± 1.5 mM
Vmax (purified protein [3]): 0.315 µmol/min/mg
Km (purified protein [4]): 62 ± 8 µM
Vmax (purified protein [4]): 0.679 µmol/min/mg
Km (purified protein [5]): 3.6 ± 0.25 mM
Vmax (purified protein [5]): 1.32 µmol/min/mg
Km (purified protein [6]): 46 ± 11 µM
Vmax (purified protein [6]): 0.129 µmol/min/mg
